{
  "source": "paper doi:10.1101/2022.04.06.487319",
  "about": "(bioRxiv, 2022)",
  "binders": {"B1": {"name": "Red1^I743R-MBP (Hop1-Red1 complex from Hi5 cells) (natural protein, Saccharomyces cerevisiae, UniProt P14291 1-827, looked up)", "chain": "MEGLKKKIFGVCLKNDLAQTRNETKGIHYGLMTLETSKQLQEFLHLLVIKREVIQNFELLFHIINVAVKITDSNLPSDDIWHFILKLRFSSEINIDEDSKVLNYLLETGIAMENPVSWKCLAVISSILSSVPQSKKIITNLIETEHAKKIGQLFDNIQDLQQGNFLVEILSNCFKKSASNSKKVEKIPQLWQSRSKNKFFFENEFYPFSSKNGSLQTCQFLCNNFMSTLSFTGILRQVSYSGSETLKNLRIFKKKDDENSYFIQCIYNKIYLWLDEKAPLEFERKKIRITKNLKNKIQIKLRQPFHECVRTTADKTALLFNKTKGFQLEFEDEKLGETFFHNVNNIPKISEVQNFLVLDYIEEEPENEGEEEEQIGRADEQKEDEEEESLDELSTPMVYPIKSSIPHNHNEKVQLVTPDRSVSIRSDEWDLKSNTEDEEGNVLADLKISSTKETKRQTDYVHIDSEDQSPVVSAQMRKMRRESTKTLEILRQEFKDKDVQNKEDQSEQIQNPFVNTSSLVVGKSCLVNPKEKPNIDQTVVGITELKSNSSIKKRDINILDTIFGQPPSKKQKQFHKKEKKKQQKKLTNFKPIIDVPSQDKRNLRSNAPTKPKSIKVSKLRTDKKVTGEKSSPETAAEKVDDQTVRSNDEQAMSRATKEKCFPDVNEGKEITKDDAKVSLESKKNNETFVDSSVVEKHTPPDKDCNNCNITDILESTTVIDLQSPHGLSAPGQNTFTNKLQEQRYSSINHFSNELVRKISIINQELNKKILKELSEKYQKLFSELQDNFQNDTNEMLKFMGEIKDMMNLPEDQLVHAIRTRKFDNNKR"}, "B2": {"name": "strep-Hop1 (full length, Hop1-Red1 complex from Hi5 cells) (natural protein, Saccharomyces cerevisiae, UniProt P20050 1-605, looked up)", "chain": "MSNKQLVKPKTETKTEITTEQSQKLLQTMLTMSFGCLAFLRGLFPDDIFVDQRFVPEKVEKNYNKQNTSQNNSIKIKTLIRGKSAQADLLLDWLEKGVFKSIRLKCLKALSLGIFLEDPTDLLENYIFSFDYDEENNVNINVNLSGNKKGSKNADPENETISLLDSRRMVQQLMRRFIIITQSLEPLPQKKFLTMRLMFNDNVDEDYQPELFKDATFDKRATLKVPTNLDNDAIDVGTLNTKHHKVALSVLSAATSSMEKAGNTNFIRVDPFDLILQQQEENKLEESVPTKPQNFVTSQTTNVLGNLLNSSQASIQPTQFVSNNPVTGICSCECGLEVPKAATVLKTCKSCRKTLHGICYGNFLHSSIEKCFTCIFGPSLDTKWSKFQDLMMIRKVFRFLVRKKKGFPASITELIDSFINVEDQNNEVKERVAFALFVFFLDETLCLDNGGKPSQTIRYVTSSVLVDVKGIVIPNTRKQLNVNHEYKWHFTTSSPKAESFYQEVLPNSRKQVESWLQDITNLRKVYSEALSPSSTLQELDLNSSLPTQDPIISGQKRRRYDLDEYLEEDKSSVVNDTIKAKDFDESVPAKIRKISVSKKTLKSNW"}, "B3": {"name": "MBP-Red1^733-827/I743R (domain or fragment, Saccharomyces cerevisiae, UniProt P14291 733-827, looked up)", "chain": "NTFTNKLQEQRYSSINHFSNELVRKISIINQELNKKILKELSEKYQKLFSELQDNFQNDTNEMLKFMGEIKDMMNLPEDQLVHAIRTRKFDNNKR"}, "B4": {"name": "MBP-Red1^733-827 (coiled-coil, WT) (domain or fragment, Saccharomyces cerevisiae, UniProt P14291 733-827, looked up)", "chain": "NTFTNKLQEQIYSSINHFSNELVRKISIINQELNKKILKELSEKYQKLFSELQDNFQNDTNEMLKFMGEIKDMMNLPEDQLVHAIRTRKFDNNKR"}, "B5": {"name": "MBP-Red1^733-819 (WT) (domain or fragment, Saccharomyces cerevisiae, UniProt P14291 733-819, looked up)", "chain": "NTFTNKLQEQIYSSINHFSNELVRKISIINQELNKKILKELSEKYQKLFSELQDNFQNDTNEMLKFMGEIKDMMNLPEDQLVHAIRT"}, "B6": {"name": "MBP-Red1^733-819/I743R (domain or fragment, Saccharomyces cerevisiae, UniProt P14291 733-819, looked up)", "chain": "NTFTNKLQEQRYSSINHFSNELVRKISIINQELNKKILKELSEKYQKLFSELQDNFQNDTNEMLKFMGEIKDMMNLPEDQLVHAIRT"}},
  "key": {"strep-Hop1 FL K593A": {"target": "T1, strep-Hop1 FL K593A (Saccharomyces cerevisiae, UniProt P20050 1-605, K593A)", "T1 sequence (looked up)": "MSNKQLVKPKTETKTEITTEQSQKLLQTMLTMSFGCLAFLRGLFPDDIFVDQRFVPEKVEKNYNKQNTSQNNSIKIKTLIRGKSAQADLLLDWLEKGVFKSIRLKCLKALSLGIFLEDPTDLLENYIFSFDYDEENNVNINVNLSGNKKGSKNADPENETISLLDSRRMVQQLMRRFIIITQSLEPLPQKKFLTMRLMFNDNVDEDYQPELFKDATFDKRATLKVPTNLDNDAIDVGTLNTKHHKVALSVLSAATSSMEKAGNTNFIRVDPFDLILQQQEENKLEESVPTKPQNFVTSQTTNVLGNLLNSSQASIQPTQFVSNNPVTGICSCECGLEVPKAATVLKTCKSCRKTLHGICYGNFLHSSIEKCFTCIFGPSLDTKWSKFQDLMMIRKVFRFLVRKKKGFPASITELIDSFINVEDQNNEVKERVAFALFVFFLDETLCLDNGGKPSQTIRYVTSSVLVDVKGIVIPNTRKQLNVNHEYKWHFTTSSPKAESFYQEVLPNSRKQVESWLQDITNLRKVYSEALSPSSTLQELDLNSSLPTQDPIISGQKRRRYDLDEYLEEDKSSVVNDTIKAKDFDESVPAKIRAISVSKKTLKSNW", "test": "pull-down"}, "[1]": {"target": "B2", "test": "mass photometry"}, "[2]": {"target": "B1", "test": "cross-linking"}, "[3]": {"target": "B1", "test": "pull-down"}, "mass photometry": {"target": "the molecule itself", "test": "mass photometry"}, "SEC-MALS": {"target": "the molecule itself", "test": "SEC-MALS"}},
  "note": "Where “and” joins values, the source holds several entries; their conditions need not be identical. Equal entries are not always repeated.",
  "data": [
    {"binder": "FHNVNNIPKISEVQNFLVLDYIE (peptide, UniProt P14291 340-362, looked up)", "note": "[MBP-Red1 (340-362), wild-type closure motif]", "values": [
      {"measurement": "binding result", "setting": "strep-Hop1 FL K593A", "value": "binds"}
    ]},
    {"binder": "B1", "values": [
      {"measurement": "stoichiometry N", "setting": "[1]", "value": 1}
    ]},
    {"binder": "B2", "values": [
      {"measurement": "binding result", "setting": "[2]", "value": "binds"},
      {"measurement": "binding result", "setting": "[3]", "value": "binds"}
    ]},
    {"binder": "B3", "values": [
      {"measurement": "stoichiometry N", "setting": "mass photometry", "value": 2},
      {"measurement": "stoichiometry N", "setting": "SEC-MALS", "value": 4}
    ]},
    {"binder": "B4", "values": [
      {"measurement": "stoichiometry N", "setting": "mass photometry", "value": "2 and 4"}
    ]},
    {"binder": "B5", "values": [
      {"measurement": "stoichiometry N", "setting": "mass photometry", "value": 4}
    ]},
    {"binder": "B6", "values": [
      {"measurement": "stoichiometry N", "setting": "mass photometry", "value": 4}
    ]}
  ]
}
